Experimental findings from the nanobody polyreactivity screen of Harvey et al. (2022) are described below.

The data set is described as follows: yeast display, Sf9 membrane polyspecificity reagent, FACS + sequencing; frameworks hold sequencing errors. Summed up: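 Nanobodies came from a synthetic yeast display library in Saccharomyces cerevisiae BJ5465, induced with galactose for 36–48 hours and stained for 1 hour at 4 °C with 10% biotinylated, detergent-solubilized Sf9 membrane reagent. Cells were enriched on streptavidin microbeads and then FACS-sorted, with low and high (top ~1%) gates set on anti-HA fluorescence for expression and streptavidin fluorescence for reagent binding. Each polyreactivity label reflects the gate a clone came from. Genes were amplified by colony PCR, sequenced by MiSeq 2 × 250 and filtered by CDR length.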
For “QVQLVESGGGLVQAGGSLRLRCAASGSTFDVYAMGWYRQAPGKERELVASISITDGSTYYADSVKGRFTISRDNAKNTVYLQMNSLIPEVTAVYYCAAEYHTLSKYSGYATHVYWGQGTQVTVSS”, the “polyreactivity (PSR sort gate)” value is on record as “low polyreactivity”. Consider “QVQLVESGGGLVQAGGSLRLRCAASGSTFKFYAMGWYRQAPGKEREFVAAITGSGGSTYYADSVKGRFTISRDNAKNTVYLQMNSLKPEDTAVYYCNTTPVLQLYYWGQGTQVTVSS”, for which the “polyreactivity (PSR sort gate)” value was “low polyreactivity”. With “QVQLVESGGGLVQAGGSLRLRCAASGSTFQRYAMGWYRQAPGKERELVAAITWSGGSTKYADSVKGRFTISRDNAKTTVYLQMNCLKPEDTAVYYCARTYLSSRWGQGTQVTVSS”, the “polyreactivity (PSR sort gate)” value was “low polyreactivity”.

Regarding “QVQLVESGGGLVQAGGSLRLRCAASGSTFRANAMGWYRQAPGKERELVAAISWSGGRTYYADSVKGRFTISRDNAKNTVYLQMNSLKPEDTAVYYCAAPKLTSYDSWGQGTQVTVSS”, the “polyreactivity (PSR sort gate)” value is “high polyreactivity”. As for “QVQLVESGGGLVQAGGSLRLRCAASGSTFSGYAMGWYRKGPGKERELVAAISSGGGSTYYADSVKGRFTISRYNAKNTVYLQMNSLKPEDTDVYYCATGYPWYCGQGTQVTVSS”, the entry is “high polyreactivity”; as for “QVQLVESGGGLVQAGGSLRLRCAASGSTFTGNTMGWYRQAPGKERELVAAITYRGGSTYYADSVKGRLTISRDNAKNTVYLQMNSLKPEDTAVYYCAAAGYYYSVEGAGPRYDYWGQGTQVTVSS”, “low polyreactivity”. Regarding “QVQLVESGGGLVQAGGSLRLRCAASGSTSPFNAMGWYRQAPGKERELVASITSSGSTNYADSVKGRFTISRDNAKNTVYLQINSLKPEDTAVYYCASEGVVSETFYAYWGQGTQVTVSS”, the “polyreactivity (PSR sort gate)” value is reported as “low polyreactivity”. As for “QVQLVESGGGLVQAGGSLRLRCAATGFISVTYAMGWYRQAPGKERELVAAITYSGGSTYYADSVKGRFTISRDNAKNTVYLQMNSLKPEDTAVYYCATEPQSDYSYDYWGQGTQVTVSS”, the entry is “low polyreactivity”; as for “QVQLVESGGGLVQAGGSLRLRCAATGHIFYYYTMGWSRQAPGKERELVAGITIGGSTNYADSVKGRFTISRDNAKNTVYLQMKSLKPEDTAVYYCNVVKYVYIYSYWEYYYWGQGTQVTVSS”, “low polyreactivity”; as for “QVQLVESGGGLVQAGGSLRLRCADSGRTFRYNAMGWYRQAPGKERELVAGIRWSGDRTYYADSVKGRFTISHDNAKNTVYLQMNSLKPEDTAVYSCNKVYHPGYGVRATYDYWGQGTQVTVSS”, “high polyreactivity”. Consider “QVQLVESGGGLVQAGGSLRLRGAASGFTYLYYAMGWYRQAPGKERELVAAITWSGDSTYYADSVKGRFTISRDNAKNTVYLQMNSLKPEDTAVYYCANGGVTFGTVVRGVDGDYWGQGTQVTVSS”, for which the “polyreactivity (PSR sort gate)” value was “low polyreactivity”.

Regarding “QVQLVESGGGLVQAGGSLRLRGAASGGIISSYVLGWYRQAPGKERELVAAISRSGGSTYYADSVKGRFTISRDNAKNTVNLQMNSLKPEDTAVYYCAAVLQTRYNYWGQGTQVTVSS”, the “polyreactivity (PSR sort gate)” value is recorded as “high polyreactivity”.

Regarding “QVQLVESGGGLVQAGGSLRLRWAASGRIFHHYAMGWYRPAPGKERELVAAISSGGSTYYADSVKGRFTISRDNAKNTVYLQMNSLKPEVTAVYYCAAYWYSPEYDYWGQGTQVTLSS”, the “polyreactivity (PSR sort gate)” value is reported as “high polyreactivity”. The entry for “QVQLVESGGGLVQAGGSLRLRWAASGRIFLNYAMGLYRQEPGKEREVVAAISRTGGRKYYADSVKGRFTISRDTEKNTVYLQMYSLKPEDTAVYYCDAYYSGFLTYGLDYWGQGTQVTLSS” is “high polyreactivity”; for “QVQLVESGGGLVQAGGSLRLSAASGSTLAGNTMGWYRQAPGKERELVAAINDSGGSTYYADSVKGRFTISRDNAKNTVYLQMNSLKPEETAVYYCNADGSAYIEDGYDYWGQGTQVTVSS” it is “low polyreactivity”. As for “QVQLVESGGGLVQAGGSLRLSCAAAARTFPYNAMGWYRQAPGQERELVATISRRTGTTYYADSVKGRFTISRDNAKNTVYLQMNSLKPEDTAVYFCAATGFGLRRLFRGDYWGQGTQVTVSS”, the entry is “high polyreactivity”; as for “QVQLVESGGGLVQAGGSLRLSCAAAGFTFSVNAMGWYRQAPGKERELVAAISSRGSITYYADSVKGRFTISRDNAKNTVYLQMNSLKPEDTAVYYCNAYKYKSPGDYWGQGTQVTVSS”, “high polyreactivity”; as for “QVQLVESGGGLVQAGGSLRLSCAACGFTFWKYAMGWYRQAPGKERELVAAITSGGNTYYADSVKGRFTISRDNAKNTVYLQMNSLKPEDTAVYYCATSGPRGWSLHDYWGQGTQVTVSS”, “high polyreactivity”. The entry for “QVQLVESGGGLVQAGGSLRLSCAACGRIFGYYAMGWYRQAPGKERELVAAITGVGRTNYADSVKGRFTISRDNAKNTVYLQMNSLKPEDTAVYYCNVVRVYRYDYWGQGTQVTVSS” is “high polyreactivity”; for “QVQLVESGGGLVQAGGSLRLSCAACGRTFGWYAMGWYRQAPGTERELVATISSRGGATYYADSVKGRFTISRDNAKNTVYFQMNSLKPEDTAVYYCAAYSRTFEGHRGGYWGQGTQVTVSS” it is “high polyreactivity”; for “QVQLVESGGGLVQAGGSLRLSCAACGRTLVRYAMGWYRQAPGKERELVATITRGGSTNYADSVKGRFTISRDNAKNTVYLQMNSLKPEDTAVYYCARDLYYSSRYSPYGRYDYWGQGTQVTVSS” it is “high polyreactivity”. Consider “QVQLVESGGGLVQAGGSLRLSCAACGRTSSIYAMGWYRQAPGKERELVATITGGAVSTSYADSVKGRFTISRDNAKNTVYLQMNSLKPEDSAVYYCADDHWRYRSRPVNYWGLGTQVTVSS”, for which the “polyreactivity (PSR sort gate)” value is “high polyreactivity”.

“QVQLVESGGGLVQAGGSLRLSCAACGSIFDYYTMGWYRQAPGKEREFVAGISDSGGSTNYADSVKGRFTISRDNAKNTVYLQINSLKPEDTAVYYCNAEYVGWFYKYDYWGQGTQVTVSS”: the “polyreactivity (PSR sort gate)” value is on record as “high polyreactivity”. As for “QVQLVESGGGLVQAGGSLRLSCAACGSIIYRNAMGWYRPAPGKERELVAAIRTSSGSTYYADSVKGRFTISRDNAKNTVYLQMNSLKPEDTAVYYCAAPRLYGYYSWGQGTQVTVSS”, the entry is “low polyreactivity”. As for “QVQLVESGGGLVQAGGSLRLSCAACGSTFFRNAMGWYRQAPGKERELVAAISKSGTSTYYADSVKGRFTISRDNAKNTVYLQMNSLKPEDTAVYYCAADSRYPWRGDYWGQGTQVTVSS”, the entry is “high polyreactivity”. The entry for “QVQLVESGGGLVQAGGSLRLSCAAMGWYRPAPGKERELVATITWSGGSTYYADSVKGRFTISRDNAKNTVYLQMNSLKPEDNAVYYCNARATLLSPANTIRGYDYWGQGTQVTVSS” is “low polyreactivity”.

Turning to “QVQLVESGGGLVQAGGSLRLSCAAPGSTFVRYAMGWYRQAPGKERELVAAISKSGGSTYYADSVKGRFTISRDNAKNTVYLQMYSLKPEDTAVYYCAATTTRYSYEYWGQGTQVTVSS”, the “polyreactivity (PSR sort gate)” value is “low polyreactivity”.

“QVQLVESGGGLVQAGGSLRLSCAASAFTFGNYAMGWYRQAPGKERELVAVISRGGSTYYADSVKGRFTISRDYAKNTVYLQMNSLKPEDTAVYFCAARAFPPYGYDYWGQGTQVTVSS”: the “polyreactivity (PSR sort gate)” value was “high polyreactivity”.

Take “QVQLVESGGGLVQAGGSLRLSCAASAFTFYSNAMGWYRQAPGTEREVVASISASGGSTYYADSVKGRFTISRDNAKNSVYLQMNSLKPEDTAVYYCAVYWSYLFDYLGQGTQVTVSS”: the “polyreactivity (PSR sort gate)” value was “high polyreactivity”. As for “QVQLVESGGGLVQAGGSLRLSCAASAFTLARYAMGWYRQAPGKERELVAAITKRGGSTYYADSVKGRFTISRDNAKKTVYLQMNSLKPEDTAVYYCNGASRYSQTFEFDYWGQGTQVTVSS”, the entry is “high polyreactivity”; as for “QVQLVESGGGLVQAGGSLRLSCAASAFTLYPYAKGWYRQAPGKERELVAAISGSGGSTYYADSVKGRFTISRDNAKNTVYLQMNRLKPEDTAVYYCAARYLDVRPFYYWGQGTQVTVSS”, “high polyreactivity”; as for “QVQLVESGGGLVQAGGSLRLSCAASAGIIRTYAMGWYRQAPGKEMELVAAITFSAGSTFYADSVKGRFTISRDNAKNTVYLQMNSLKPEDTAVYYCNKDGGGDSYWYDYWGQGTQVTVSS”, “low polyreactivity”.

Take “QVQLVESGGGLVQAGGSLRLSCAASAITLDGNAMGWYIQAPGKERELVAAITSGGGTNYADSVKGRFTISRDNAKNTVYLEMNSLKQEDTAVYYCAETGRLLTSNYWGLGTQVTVSS”: the “polyreactivity (PSR sort gate)” value was “low polyreactivity”. The entry for “QVQLVESGGGLVQAGGSLRLSCAASALIFKTYTMGWYRQAPGKEREFVAAITTSGGSTYYADSVKGRFTISRDNAKNTVYLQMNSLKPEDTAVYYCAAVWWKSFQGSSYRMNYWGQGTQVTVSS” is “high polyreactivity”; for “QVQLVESGGGLVQAGGSLRLSCAASARIYDLNAMGWYRQAPGKERELVAAITWSGDSTYYADSVKGRFTISRDTAKNTVYLQMNSLKPEDTAVYYCAAASRTSYSWVDYEFDYWGQGTQVTVSS” it is “low polyreactivity”; for “QVQLVESGGGLVQAGGSLRLSCAASASIFLVYAMGWYRQAPGKERELVAAISRSGRTYADSVKGRFTISRDNAKNTVYLQMNSLKPEDTAVYYCAAGTKRRFEGDYWGQGTQVTVSS” it is “high polyreactivity”.

With “QVQLVESGGGLVQAGGSLRLSCAASASIVFTYVMGCYSQAPWKERELVSAITSDDNTNYADSVKGRFTISRVNAKNTVYLQMNSLKPEDTAVYYCNADTTLYPYYEYGYYDYDYWGHGTQVTVSS”, the “polyreactivity (PSR sort gate)” value is listed as “low polyreactivity”. As for “QVQLVESGGGLVQAGGSLRLSCAASASTFLSYAMGWYRQAPGKERELVAAITSRGGSTYYADSVKGRFTISRDIAKNTVYLQMNSLKPEDTAVYYCATRLGYGDSKVRRPYSRFYYWGQGTQVTVSS”, the entry is “high polyreactivity”; as for “QVQLVESGGGLVQAGGSLRLSCAASASTLYRTAMGWYRPAPGKEREMVAAINYRGTRTYYADSVKGRFTISRDNAKNTVYLLMKSLNPEDTAVYYCAKDYSQFVTYPYDYWGQGTQVSVSS”, “low polyreactivity”. The entry for “QVQLVESGGGLVQAGGSLRLSCAASAYTFDGYAMGWYRQAPGKERELVAAINSGGGTYYADSVKGRFTISRDNAKNSVYLQMNSLKPEDTPVYYCNASVKPSNVWSRGYDYWGQGTQVTVSS” is “low polyreactivity”. Regarding “QVQLVESGGGLVQAGGSLRLSCAASDAMGWYRQAPGKERELVASISNGVSTNYADSVKGRFTISRDNAKNTVYLQMNSLKPEDTAVYYCAADAKTVGRDDLYWYEVEFDYWGQGTQVTVSS”, the “polyreactivity (PSR sort gate)” value was “low polyreactivity”.
